Key:
[1] = target: T1, human sclerostin, mature form (signal peptide removed) (human, UniProt Q9BQB4 24-213); assay: Biacore cross-blocking, human sclerostin on CM5 chip; mixed with competitor Ab-A, each 1.3 uM binding sites
T1 construct: 190 amino acid glycoprotein with four disulfide bonds (C1-C5, C2-C6, C3-C7, C4-C8); also called SOST; recombinant human sclerostin
T1 sequence: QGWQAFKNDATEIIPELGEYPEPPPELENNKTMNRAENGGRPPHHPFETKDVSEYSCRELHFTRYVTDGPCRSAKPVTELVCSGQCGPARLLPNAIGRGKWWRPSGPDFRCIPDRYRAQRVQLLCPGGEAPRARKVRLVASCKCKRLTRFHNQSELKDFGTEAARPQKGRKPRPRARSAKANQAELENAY
Procedure: (§1) Human sclerostin was coupled to a CM5 Biacore chip using standard amine coupling chemistry to generate a sclerostin coated surface. 300 resonance units of sclerostin were coupled to the surface.
(§2) 20 μL of the test mixture was passed over the sclerostin-coated chip at a flow rate of 10 μL/min and the amount of binding recorded. The chip was then treated with two 60 second pulses of 30 mM HCl to remove all of the bound antibody. A solution containing only one of the antibodies of the test mixture (at 1.3 μM in the same buffer as the test mixture on a binding site basis) was then passed over the chip in the same manner as the test mixture and the amount of binding recorded. The chip was again treated to remove all of the bound antibody and finally a solution containing the other antibody from the test mixture alone (at 1.3 μM in the same buffer as the test mixture on a binding site basis) was passed over the chip and the amount of binding recorded.
(§3) The table below show the results from cross-blocking assays on a range of different antibodies. The values in each square of the table represent the amount of binding (in RU) seen when the antibodies (at 1.3 μM on a binding site basis) or buffer indicated in the top row of the table were mixed with the antibodies (at 1.3 uM on a binding site basis) or buffer indicated in the first column of the table.

[2] = target: T1, human sclerostin, mature form (signal …); assay: Biacore cross-blocking on human sclerostin; mixture with competitor Ab-3, mean RU against the sum of each alone
Procedure: as §1
(§4) The antibodies to be tested were diluted to a concentration of 200 ug/ml in HBS-EP buffer (being 10 mM HEPES pH 7.4, 150 mM NaCl, 3 mM EDTA, 0.005% (v/v) Surfactant P20) and then mixed in a one to one molar ratio (on a binding site basis) to generate the test mixture. This test mixture thus contained each antibody at a concentration of 100 ug/ml (1.3 um on a binding site basis). Separate solutions containing each of the antibodies in the test mix alone were also prepared. These solutions contained the individual antibodies in HBS-EP buffer at a concentration of 100 ug/ml (1.3 um on a binding site basis).
as §2

[3] = target: T1, human sclerostin, mature form (signal …); assay: KinExA solution equilibrium binding, human sclerostin-coated beads
Procedure: The affinity of several anti-sclerostin antibodies to human sclerostin was assessed by a solution equilibrium binding analysis using KinExA® 3000 (Sapidyne Instruments Inc., Boise, Id.). For these measurements, Reacti-Gel 6× beads (Pierce, Rockford, Ill.) were pre-coated with 40 μg/ml human sclerostin in 50 mM Na2CO3, pH 9.6 at 4° C. overnight. The beads were then blocked with 1 mg/ml BSA in 1M Tris-HCl, pH 7.5 at 4° C. for two hours. 10 pM, 30 pM, or 100 pM of the antibody was mixed with various concentrations of human sclerostin, ranging in concentration from 0.1 pM to 1 nM, and equilibrated at room temperature for over 8 hours in PBS with 0.1 mg/ml BSA and 0.005% P20. The mixtures were then passed over the human sclerostin coated beads. The amount of bead-bound anti-sclerostin antibody was quantified using fluorescent Cy5-labeled goat anti-mouse-IgG or fluorescent Cy5-labeled goat anti-human-IgG antibodies (Jackson Immuno Research, West Grove, Pa.) for the mouse or human antibody samples, respectively. The amount of fluorescent signal measured was proportional to the concentration of free anti-sclerostin antibody in each reaction mixture at equilibrium. The dissociation equilibrium constant (KD) was obtained from nonlinear regression of the competition curves using a n-curve one-site homogeneous binding model provided in the KinExA Pro software.

[4] = target: T1, human sclerostin, mature form (signal …); assay: Biacore cross-blocking, human sclerostin on CM5 chip; mixed with competitor Ab-13, each 1.3 uM binding sites
Procedure: as §1, §4, §2

[5] = target: T1, human sclerostin, mature form (signal …); assay: Biacore cross-blocking, human sclerostin on CM5 chip; mixed with competitor Ab-19, each 1.3 uM binding sites
Procedure: as §1, §4, §2

[6] = target: T1, human sclerostin, mature form (signal …); assay: Biacore cross-blocking on human sclerostin; mixture with competitor Ab-19, mean RU against the sum of each alone
Procedure: as §1, §4, §2

[7] = target: T1, human sclerostin, mature form (signal …); assay: Biacore cross-blocking, human sclerostin on CM5 chip; mixed with competitor Ab-3, each 1.3 uM binding sites
Procedure: as §1, §2, §3

[8] = target: T1, human sclerostin, mature form (signal …); assay: Biacore cross-blocking, human sclerostin on CM5 chip; mixed with competitor Ab-4, each 1.3 uM binding sites
Procedure: as §1, §2, §3

[9] = target: T1, human sclerostin, mature form (signal …); assay: Biacore 3000; antibody captured by anti-human IgG Fc, sclerostin as analyte
Procedure: The assay format was capture of the anti-sclerostin antibody by immobilised anti-human IgG-Fc then titration of the sclerostin over the captured surface. An example of the procedure is given below: BIA (Biamolecular Interaction Analysis) was performed using a BIAcore 3000 (BIAcore AB). Affinipure F(ab′)₂ Fragment goat anti-human IgG, Fc fragment specific (Jackson
ImmunoResearch) was immobilised on a CM5 Sensor Chip via amine coupling chemistry to a capture level of ≈4000 response units (RUs). HBS-EP buffer (10 mM HEPES pH 7.4, 0.15 M NaCl, 3 mM EDTA, 0.005% Surfactant P20, BIAcore AB) containing 1 mg/mL CM-Dextran was used as the running buffer with a flow rate of 10 μl/min. A 10 μl injection of the anti-sclerostin antibody at ˜5 μg/mL was used for capture by the immobilised anti-human IgG-Fc. Antibody capture levels were typically 100-200 RU. Sclerostin was titrated over the captured anti-sclerostin antibody at various concentrations at a flow rate of 30 μL/min. The surface was regenerated by two 10 μL injections of 40 mM HCl, followed by a 5 μL injection of 5 mM NaOH at a flowrate of 10 μL/min.
Background subtraction binding curves were analysed using the BIAevaluation software (version 3.2) following standard procedures. Kinetic parameters were determined from the fitting algorithm.

| Binder | amount of binding (RU) [1] [RU] | percentage of the theoretical binding [2] [%] | Kd [3] [pM] | amount of binding (RU) [4] [RU] | amount of binding (RU) [5] [RU] | percentage of the theoretical binding [6] [%] | amount of binding (RU) [7] [RU] | amount of binding (RU) [8] [RU] | Kd [9] [pM] | koff [9] [s⁻¹] | kon [9] [M⁻¹ s⁻¹] |
| --- | --- | --- | --- | --- | --- | --- | --- | --- | --- | --- | --- |
| Antibody 4 (antibody, mouse IgG1, kappa, V domains shown, Mature LC and HC; Parent of humanized Ab-5; also called Ab-4) VH: EVQLQQSGPELMKPGASVKMSCKASGYTFTDYNMHWVKQNQGKTLEWIGEINPNSGGAGYNQKFKGKATLTVDKSSTTAYMELRSLTSEDSAVYYCARLGYDDIYDDWYFDVWGAGTTVTVSS VL: DIQMTQITSSLSASLGDRVSISCRASQDISNYLNWYQQKPDGTFKLLIFYTSRLLSGVPSRFSGSGSGTDYSLTIYNLEQEDFATYFCQQGDTLPYTFGGGTKLEIKR | 860 | 85.4 | 3 | 1020 | 822 | 60.8 | 869 |  |  |  |  |
| Antibody 13 (antibody, mouse IgG1, kappa, V domains shown, Mature LC and HC; Parent of humanized Ab-14; also called Ab-13) VH: EVQLQQSGPELVKPGASVKMSCKASGYTFTDYYMNWVKQSHGESLEWIGDINPYNDDTTYNHKFKGKATLTVDKSSNTAYMQLNSLTSEDSAVYYCARETAVITTNAMDYWGQGTSVTVSS VL: QIVLTQSPAIMSASPGEKVTMTCRASSSVTSSYLNWYQQKPGSSPKLWIYSTSNLASGVPARFSGSGSGTSYSLTISSVEAEDAATYYCQQYDFFPSTFGGGTKLEIKR | 1110 | 58 | 0.6 |  | 1040 | 97 | 432 | 1010 |  |  |  |
| Antibody 3 (antibody, mouse IgG1, kappa, Mature LC and HC (signal peptide removed); Parent of humanized Ab-15; also called Ab-3) light: EIVLTQSPALMAASPGEKVTITCSVSSTISSNHLHWFQQKSDTSPKPWIYGTSNLASGVPVRFSGSGSGTSYSLTISSMEAEDAATYYCQQWSSYPLTFGAGTKLELRRADAAPTVSIFPPSSEQLTSGGASVVCFLNNFYPKDINVKWKIDGSERQNGVLNSWTDQDSKDSTYSMSSTLTLTKDEYERHNSYTCEATHKTSTSPIVKSFNRNEC heavy: EVQLQQSGAELVRPGALVKLSCTASDFNIKDFYLHWMRQRPEQGLDWIGRIDPENGDTLYDPKFQDKATLTTDTSSNTAYLQLSGLTSETTAVYYCSREADYFHDGTSYWYFDVWGAGTTITVSSAKTTPPSVYPLAPGSAAQTNSMVTLGCLVKGYFPEPVTVTWNSGSLSSGVHTFPAVLQSDLYTLSSSVTVPSSTWPSETVTCNVAHPASSTKVDKKIVPRDCGCKPCICTVPEVSSVFIFPPKPKDVLTITLTPKVTCVVVDISKDDPEVQFSWFVDDVEVHTAQTQPREEQFNSTFRSVSELPIMHQDWLNGKEFKCRVNSAAFPAPIEKTISKTKGRPKAPQVYTIPPPKEQMAKDKVSLTCMITDFFPEDITVEWQWNGQPAENYKNTQPIMDTDGSYFIYSKLNVQKSNWEAGNTFTCSVLHEGLHNHHTEKSLSHSPGK | 952 |  |  | 428 | 896 | 94.4 |  | 845 |  |  |  |
| Antibody 19 (antibody, V domains shown, the signal peptide is not part of the antibody as tested; Parent of humanized Ab-20 and Ab-23; also called Ab-19) VH: EVQLQQSGPELVKPGASVKMSCKASGFTFTDYIMHWVKQKPGQGLEWIGYINPYNDDTEYNEKFKGKATLTSDKSSSTAYMDLSSLTSEGSAVYYCARSIYYYDAPFAYWGQGTLVTVSS VL: DIQMTQTTSSLSASLGDRVNISCRASQDISSYLNWYQQKPDGTVKLLIYSTSRLNSGVPSRFSGSGSGTDYSLTISNLAQEDIATYFCQQDIKHPTFGGGTKLELKR | 863 |  | 3 | 1020 |  |  | 892 | 789 |  |  |  |
| Antibody 14 (antibody, human IgG2, kappa, V domains shown, Humanized Ab-13; Mature LC and HC; also called Ab-14; Ab14) VH: EVQLVQSGAEVKKPGASVKVSCKASGYTFTDYYMNWVRQAPGQRLEWMGDINPYNDDTTYNHKFKGRVTITRDTSASTAYMELSSLRSEDTAVYYCARETAVITTNAMDYWGQGTTVTVSS VL: DIQLTQSPSFLSASVGDRVTITCRASSSVTSSYLNWYQQKPGKAPKLLIYSTSNLASGVPSRFSGSGSGTEFTLTISSLQPEDFATYYCQQYDFFPSTFGGGTKVEIKR |  |  | 1 |  |  |  |  |  | 1.48 | 4.87e-06 | 3.3e+06 |
| Antibody 5 (antibody, human IgG2, kappa, V domains shown, Humanized Ab-4; Mature LC and HC; also called Ab-5) VH: EVQLVQSGAEVKKPGASVKVSCKASGYTFTDYNMHWVRQAPGQGLEWMGEINPNSGGAGYNQKFKGRVTMTTDTSTSTAYMELRSLRSDDTAVYYCARLGYDDIYDDWYFDVWGQGTTVTVSS VL: DIQMTQSPSSLSASVGDRVTITCRASQDISNYLNWYQQKPGKAPKLLIYYTSRLLSGVPSRFSGSGSGTDFTLTISSLQPEDFATYYCQQGDTLPYTFGGGTKVEIKR |  |  | 6 |  |  |  |  |  | 97.8 | 0.000174 | 1.78e+06 |
| Antibody 23 (antibody, human IgG2, kappa, Humanized Ab-19, IgG2 version; Mature LC and HC; also called Ab-23) light: not shown heavy: EVQLVQSGAEVKKPGSSVKVSCKASGFTFTDYIMHWVRQAPGQGLEWMGYINPYNDDTEYNEKFKGRVTITADKSTSTAYMELSSLRSEDTAVYYCARSIYYYDAPFAYWGQGTLVTVSSASTKGPSVFPLAPCSRSTSESTAALGCLVKDYFPEPVTVSWNSGALTSGVHTFPAVLQSSGLYSLSSVVTVPSSNFGTQTYTCNVDHKPSNTKVDKTVERKCCVECPPCPAPPVAGPSVFLFPPKPKDTLMISRTPEVTCVVVDVSHEDPEVQFNWYVDGVEVHNAKTKPREEQFNSTFRVVSVLTVVHQDWLNGKEYKCKVSNKGLPAPIEKTISKTKGQPREPQVYTLPPSREEMTKNQVSLTCLVKGFYPSDIAVEWESNGQPENNYKTTPPMLDSDGSFFLYSKLTVDKSRWQQGNVFSCSVMHEALHNHYTQKSLSLSPGK |  |  | 4 |  |  |  |  |  |  |  |  |

Reference: patent US20140248666A1 (Amgen, published 2014)
